These results are taken from the supplement of paper PMC12042874.

± gives the uncertainty stated by the source.

A short description of this series: amyloid nucleation score (Sup35N fusion, yeast selection) (log enrichment); library NNK1; higher = more nucleation; inactive = no reads after selection. In a few lines:
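The nucleation score, computed with DiMSum, is the log enrichment of output over input reads, centred on the mode score of non-aggregating sequences. Sequences with under 100 input reads were dropped. Reads were generated by Illumina sequencing of plasmid inserts from psi-negative yeast with Sup35N fused to peptides of 20 random codons, induced with 100 μM copper sulfate for 24 hours and grown 7 days at 30°C on medium lacking adenine and uracil.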
Turning to INDCYFMWGNLFCYVCVMLL, the amyloid nucleation score worked out at 1.66 ± 0.46.
Regarding INDSRFVAYTCLRVTEKYGL, the amyloid nucleation score came to 0.855 ± 0.22.
With INFQNDELWVLETIGFHTYP the figure was -0.256 ± 0.49; with INIAMVMPLDGKLIQIDDTC, 0.177 ± 0.31; with INRSSVESLVLTDLKHWTSG, 0.504 ± 0.49.
The substance INTSYIEEHYELVGFVHWNV registered an amyloid nucleation score of -0.449 ± 0.79.
With INWRN the figure was -0.471 ± 0.34; with IPGTPMT, “inactive”.
Substance IPKVIGWFTVVTTGVVVDIS registered an amyloid nucleation score of 1.27 ± 0.7.
In the case of IQRKSITTWSPH, the amyloid nucleation score is 3.43 ± 0.2.
With IQSRDGVSYKQDVWTLGCVL the figure was 0.658 ± 0.55; with IRANLEDVLHIFIPVEGHSR, -0.655 ± 1.1; with IRCLSMIWVTKDVLIIWRSQ, 0.159 ± 0.93.
In turn, IRGLRVLHSVFLALLVCKNL yielded an amyloid nucleation score of -0.136 ± 0.59.
In the case of IRGNVKETVIFFKTRFAFCW it was 0.147 ± 0.73; in that of IRPNMRAVKIEVQDVGSQCV, 0.428 ± 0.6.
In the case of IRQQKGFGCNAFWMVLG it was 0.83 ± 0.78.
With IRRATF the figure was 0.421 ± 0.84; with IRRYPAFFFNVYPSTSMFCS, -1.21 ± 0.88; with IRSLLYYLFGFLMFWVIRIW, 0.226 ± 0.66.
For IRTCLVSIVATRCKVGVESP, the amyloid nucleation score is 0.403 ± 0.34.
With IRWRSSFVQSMMVTHQHQSF the figure was 1.85 ± 0.16; with IRYQFVWSMSLCGLEMHWSS, 2.55 ± 0.21.
In the case of ISCGCMRVLTRDNLFLKFRF it was 0.12 ± 0.58; in that of ISDFAYWQILCRVSDIFKVQ, 2.31 ± 0.13.
For ISGFGVIVWGVVSWVWYGTN, the amyloid nucleation score was -0.268 ± 0.7.
As for ISHLDG, the amyloid nucleation score was -1.04 ± 2.4.
Take ISHSIAVRNNLLLFGPCQNR: the amyloid nucleation score is 2.12 ± 0.12.
Substance ISINHVTCRLVFETGKWRWG gave an amyloid nucleation score of 3.45 ± 0.086.
With ISLCCTSTYLTVSYGTDRS the figure was 6.487 ± 0.061; with ISLLGIWV, 0.939 ± 0.31; with ISLRGRCITSKGSSYYAIKY, “inactive”.
For the substance ISLSSGLALKPS, the amyloid nucleation score turned out to be 1.41 ± 0.48.
On to ISLWLFVFCCHIISISKWLL, for which the amyloid nucleation score result is “inactive”.
With ISMGWWIDYGPY the figure was -0.724 ± 0.81; with ISNIF, 1.67 ± 0.45; with ISNMETGHLEYSLRLAPKYC, -0.658 ± 0.82.
With ISQYILSHLCQFIVSIGLAT the figure was -0.454 ± 0.88; with ISRDNNQTGLMGGLERRTES, 0.533 ± 0.65; with ISRGDVGVKESSGCNCVLPH, -0.587 ± 1.3.
For the substance ISRGYHRYLFSKSNECGRLN, the amyloid nucleation score entry was “inactive”.
In turn, ISRSNTLYAIFCARPAKVSL came in with an amyloid nucleation score of -0.235 ± 0.6.
With ISRVIFLR the figure was 1.41 ± 0.78; with ISTAVAIAGQQARNWGAHLR, -0.196 ± 0.46.
With ISTFLRFSQSDEQYYPTE the figure was 0.496 ± 0.48.
With ISWRNYWY the figure was 1.01 ± 0.22; with ISWVSPDLVLSYPVYQPDGL, 1.93 ± 0.23.
Consider ITGFAPVRVVCEYLS, for which the amyloid nucleation score was found to be 0.182 ± 0.6.
For the substance ITMSYMSAKCVNWVVWACRL, the amyloid nucleation score was found to be 0.286 ± 0.31.
With ITMVISLCALFMSRSIIFKG the figure was -0.154 ± 1; with ITMYANMNSGQFTMLESMPD, -0.303 ± 0.26.
ITVLSS showed an amyloid nucleation score of 1.47 ± 0.46.
Substance ITVRAISMWWRDSS gave an amyloid nucleation score of 0.263 ± 0.4.
With IVDSHVSIATYRLEELRRTL, the amyloid nucleation score is 2.11 ± 0.27.
In the case of IVFFWMMLVGLNRLGVNRVG it was -0.846 ± 1.7.
With IVGSVVRGMGLVIIRSTCFW the figure was 3.15 ± 0.18; with IVKGLSCKIDWLCASMHWMR, 0.053 ± 0.36.
With IVNRHEL the figure was 0.63 ± 0.9; with IVRDFMVLINR, -0.911 ± 1.3; with IVRIESVEFSDYADFAFEVR, 0.67 ± 0.59.
Take IVRQYANLGRCCRTGVVYFQ: the amyloid nucleation score was 0.386 ± 0.63.
In the case of IVSNDKWHMWLNRL it was -0.022 ± 0.24; in that of IVVGRGKQAIASMG, -0.432 ± 0.89.
In the case of IVVNLGWFQIGIYLPARSDT it was -1.24 ± 1.9; in that of IVYSLLYVRMSSNSMWVSV, 0.958 ± 0.9.
In the case of IWDCLFPSSSAMSYPVDPKA it was 0.547 ± 0.42; in that of IWGNVSLIRGFCPVKLWSQR, -0.082 ± 0.46.
In the case of IWLSLYIAFYGCLHGWFPSQ, the amyloid nucleation score worked out at 0.645 ± 0.6.
As to IWRLWWAKGPGSRLLRCRLY, the amyloid nucleation score was -0.167 ± 0.42.
In the case of IWTKSCDCVCSCGGYQGCYR it was -0.038 ± 0.19; in that of IWTNTLNFTARFANVLAGTG, -0.705 ± 1.2; in that of IWVFMVVIMC, 1.07 ± 0.79.
Regarding IWYRQVCANLLSN, the amyloid nucleation score result was “inactive”.
With IYFLR the figure was -0.103 ± 0.42; with IYFVIGYVNVCWGSATEDMT, 5.46 ± 0.084.
With IYGELLHLWLISEFCDVRNC the figure was 0.788 ± 0.79.
In turn, IYIMKHASSSMNGVSVQDFM displayed an amyloid nucleation score of 0.695 ± 0.67.
Substance IYMVGAEPVRERDIVFVPTL yielded an amyloid nucleation score of 1.24 ± 0.98.
IYMVSC came in with an amyloid nucleation score of 0.077 ± 0.27.
Substance IYNIVGSLMSSAVFPGQSIS displayed an amyloid nucleation score of -1.38 ± 1.2.
With IYNLDWSF, the amyloid nucleation score was -0.99 ± 1.3.
Substance IYPCICSRNFDPKLYKVNTR gave an amyloid nucleation score of 0.605 ± 0.66.
For the substance IYQQIYN, the amyloid nucleation score was -0.807 ± 2.4.
Substance IYRFSCETHIFQYSRQVLFG registered an amyloid nucleation score of 0.786 ± 0.63.
In the case of IYRMRDNMNSRLRVYFNRVF it was “inactive”; in that of IYTDSVGLFCSYADMPSDRV, 0.372 ± 1.4.
IYTLGKKGMNHHDVGQWLFT showed an amyloid nucleation score of 1.55 ± 0.5.
For the substance IYYRTMYYMVVSSIN, the amyloid nucleation score was determined as 0.394 ± 0.65.
KACDRFNLTYKTVSVRMGDC had an amyloid nucleation score of 0.39 ± 0.28.
In the case of KAFNVFER it was 0.225 ± 0.53.
KAMLNNKWHLCSHVRTDHAV displayed an amyloid nucleation score of 0.172 ± 0.32.
In the case of KAPKYRDRRVGVNVKYWYMP it was 0.058 ± 0.66; in that of KAPNRE, -0.063 ± 0.66; in that of KAVYLRVRGTHCVNNVALWK, 3.43 ± 0.18.
Substance KAYRV had an amyloid nucleation score of -0.633 ± 0.39.
The substance KCAWNQVNDSNLVAYRASC displayed an amyloid nucleation score of 5.13 ± 0.097.
On to KCLTFHVSNVFITANPLCLL, for which the amyloid nucleation score was found to be 5.936 ± 0.054.
In the case of KCWPLLRITSVCVFAFTGER it was 0.937 ± 0.58.
With KEGRPQSTLCNVVRGFREQY the figure was -0.565 ± 0.7; with KENRFISQSDTALYSIKKQH, 0.549 ± 1; with KETSVSLHEDGIYCGFITSN, 0.187 ± 0.28.
Substance KFRESFLT displayed an amyloid nucleation score of -1.32 ± 0.94.
In the case of KGDNVEIMQTFDKSCLDIGA, the amyloid nucleation score result was “inactive”.
